Test results taken from patent US20190010493A1 (published 2019).

How the values were obtained:
[1] = molecular target: T1, full-length mAKAPβ protein with an internal deletion of residues 1257 to 1886 (rat) (UniProt Q9WVC7); experiment: co-immunoprecipitation, heterologous cells
T1 sequence: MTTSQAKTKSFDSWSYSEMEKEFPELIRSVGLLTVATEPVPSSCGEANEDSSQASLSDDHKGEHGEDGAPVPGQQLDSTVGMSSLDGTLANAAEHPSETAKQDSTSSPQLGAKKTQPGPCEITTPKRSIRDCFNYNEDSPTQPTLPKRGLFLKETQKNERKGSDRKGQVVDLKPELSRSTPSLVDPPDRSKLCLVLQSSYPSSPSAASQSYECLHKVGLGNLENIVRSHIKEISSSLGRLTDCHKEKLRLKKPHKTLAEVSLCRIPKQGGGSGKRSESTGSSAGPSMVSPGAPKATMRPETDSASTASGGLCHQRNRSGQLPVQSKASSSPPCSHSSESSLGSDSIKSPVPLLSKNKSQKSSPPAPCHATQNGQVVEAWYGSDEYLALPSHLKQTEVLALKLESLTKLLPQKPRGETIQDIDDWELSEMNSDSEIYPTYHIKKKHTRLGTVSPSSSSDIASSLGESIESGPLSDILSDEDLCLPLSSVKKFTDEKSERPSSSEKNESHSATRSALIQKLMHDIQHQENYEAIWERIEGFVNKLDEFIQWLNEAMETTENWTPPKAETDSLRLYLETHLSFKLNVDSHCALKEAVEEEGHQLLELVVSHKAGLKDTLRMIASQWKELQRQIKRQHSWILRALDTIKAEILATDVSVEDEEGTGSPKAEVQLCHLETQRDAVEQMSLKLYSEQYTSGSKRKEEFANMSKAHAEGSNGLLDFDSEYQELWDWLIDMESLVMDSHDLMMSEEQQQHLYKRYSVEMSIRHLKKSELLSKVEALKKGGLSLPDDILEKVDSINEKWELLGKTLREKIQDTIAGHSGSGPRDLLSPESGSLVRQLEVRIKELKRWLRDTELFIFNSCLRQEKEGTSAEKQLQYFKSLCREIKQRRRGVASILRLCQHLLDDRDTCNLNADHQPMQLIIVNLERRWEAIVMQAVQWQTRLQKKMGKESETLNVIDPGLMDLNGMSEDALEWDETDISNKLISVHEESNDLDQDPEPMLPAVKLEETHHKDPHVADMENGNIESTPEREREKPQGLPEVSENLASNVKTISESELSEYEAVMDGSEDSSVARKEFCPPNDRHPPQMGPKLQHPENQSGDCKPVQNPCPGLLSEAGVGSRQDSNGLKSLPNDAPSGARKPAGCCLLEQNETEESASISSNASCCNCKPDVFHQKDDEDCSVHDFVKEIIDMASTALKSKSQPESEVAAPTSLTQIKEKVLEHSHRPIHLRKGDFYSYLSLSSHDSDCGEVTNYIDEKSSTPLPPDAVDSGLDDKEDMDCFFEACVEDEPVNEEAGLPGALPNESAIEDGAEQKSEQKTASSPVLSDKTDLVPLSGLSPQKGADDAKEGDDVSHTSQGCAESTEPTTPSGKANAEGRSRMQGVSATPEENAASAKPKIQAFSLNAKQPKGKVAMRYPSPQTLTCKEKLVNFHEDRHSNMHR

[2] = molecular target: T2, bacterially expressed His-tagged mAKAP 1286 to 1833 (rat, UniProt Q9WVC7 1286-1833); experiment: SPR (BIAcore T100), His-mAKAP 1286-1833 immobilised, phospho-His-RSK3 analyte
T2 construct: Covalently immobilised by amine coupling on a CM5 chip, 200 resonance units; not shown: His tag (pET30-based vector)
T2 sequence: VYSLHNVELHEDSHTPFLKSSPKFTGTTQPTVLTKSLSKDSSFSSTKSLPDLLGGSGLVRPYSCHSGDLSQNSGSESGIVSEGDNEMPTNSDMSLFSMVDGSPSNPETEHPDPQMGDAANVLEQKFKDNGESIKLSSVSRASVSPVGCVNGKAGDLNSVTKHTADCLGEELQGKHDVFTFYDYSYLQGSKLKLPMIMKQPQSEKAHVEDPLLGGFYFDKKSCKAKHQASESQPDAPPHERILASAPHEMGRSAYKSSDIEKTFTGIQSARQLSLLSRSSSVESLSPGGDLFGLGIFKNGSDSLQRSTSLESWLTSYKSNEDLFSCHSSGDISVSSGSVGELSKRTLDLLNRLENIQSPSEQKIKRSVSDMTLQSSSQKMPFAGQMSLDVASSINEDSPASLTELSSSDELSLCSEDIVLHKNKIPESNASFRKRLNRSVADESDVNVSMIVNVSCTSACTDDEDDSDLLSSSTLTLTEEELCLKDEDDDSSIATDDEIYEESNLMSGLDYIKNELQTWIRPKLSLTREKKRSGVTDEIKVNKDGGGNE
Method: The inventors next tested whether mAKAP-RSK3 binding is direct (FIG. 7G of U.S. Pat. No. 9,132,174). […] The binding was direct and of high affinity (nanomolar KD). The inventors previously reported that once activated, RSK3 binds mAKAPα less well in cells (Michele 2005).
Surface Plasmon Resonance: SPR analysis was performed using a BIAcore T100. […] (Biacore amine coupling kit) to the surface of a sensor chip (BIAcore type CM5). His-RSK3 analytes (6.25-200 nmol/L) in HBS buffer (10 mmol/L Hepes, pH 7.4, 150 mmol/L NaCl, and 0.005% Surfactant P20) were injected at a flow rate of 30 μL/min for 5 minutes, followed by buffer alone for another 5 minutes. Sensorgrams were processed by BIAcore T100 evaluation software.

[3] = molecular target: T3, N-terminally truncated RSK3 mutant (HA-RSK3 DN30) (human, UniProt Q15349 31-733); experiment: co-immunoprecipitation in heterologous cells
T3 construct: The range 31-733 is inferred from the label 'DN30'; not shown: hemagglutinin (HA) tag
From the text: To address this hypothesis, the inventors defined the mAKAP domains responsible for RSK3 binding. HA-tagged RSK3 was co-expressed in heterologous cells with myc-tagged mAKAPβ fragments and coimmunoprecipitated using a myc-tag antibody (FIGS. 7A and 7B of U.S. Pat. No. 9,132,174). […] As shown, the unique N-terminal domain of RSK3 bound full-length mAKAPβ (FIG. 4D of U.S. Pat. No. 9,132,174). The mAKAP RBD also bound HA-RSK3 1 to 42 (FIG. 7E of U.S. Pat. No. 9,132,174), but not to the N-terminally truncated RSK3 mutant (HA-RSK3 DN30) or the HA-tagged full-length RSK2 (FIG. 7F of U.S. Pat. No. 9,132,174).
Immunoprecipitations: HEK293 and COS-7 cells were transfected with Lipofectamine 2000 (Invitrogen) or Polyethylenimine “Max” (Polysciences). Cells (including myocytes) were lysed in buffer (20 mmol/L HEPES, pH 7.4, 150 mmol/L NaCl, 5 mmol/L EDTA, 0.5% Triton, 50 mmol/L NaF, 1 mmol/L sodium orthovanadate, 1 mmol/L DTT, and protease inhibitors). After centrifugation at 10,000×g for 10 minutes at 4° C., the clarified extracts were used for immunoprecipitation using appropriate antibodies (10 μg purified antibody or 1-5 μL whole serum) and 20 μL protein G sepharose (Millipore, Fastflow) for 3 hours to overnight at 4° C. The beads were washed 3-5 times with lysis buffer, and the immunoprecipitated proteins were eluted with 1× Laemmli buffer for western blotting. […]

HA-tagged RSK3 (type 3 p90 ribosomal S6 kinase) (from UniProt Q15349 1-733) (enzyme)
reduction of binding against full-length mAKAPβ [1]: > 85%

B1: His-RSK3 phosphorylated by ERK (enzyme)
chain: MDLSMKKFAVRRFFSVYLRRKSRSKSSSLSRLEEEGVVKEIDISHHVKEGFEKADPSQFELLKVLGQGSYGKVFLVRKVKGSDAGQLYAMKVLKKATLKVRDRVRSKMERDILAEVNHPFIVKLHYAFQTEGKLYLILDFLRGGDLFTRLSKEVMFTEEDVKFYLAELALALDHLHSLGIIYRDLKPENILLDEEGHIKITDFGLSKEAIDHDKRAYSFCGTIEYMAPEVVNRRGHTQSADWWSFGVLMFEMLTGSLPFQGKDRKETMALILKAKLGMPQFLSGEAQSLLRALFKRNPCNRLGAGIDGVEEIKRHPFFVTIDWNTLYRKEIKPPFKPAVGRPEDTFHFDPEFTARTPTDSPGVPPSANAHHLFRGFSFVASSLIQEPSQQDLHKVPVHPIVQQLHGNNIHFTDGYEIKEDIGVGSYSVCKRCVHKATDTEYAVKIIDKSKRDPSEEIEILLRYGQHPNIITLKDVYDDGKFVYLVMELMRGGELLDRILRQRYFSEREASDVLCTITKTMDYLHSQGVVHRDLKPSNILYRDESGSPESIRVCDFGFAKQLRAGNGLLMTPCYTANFVAPEVLKRQGYDAACDIWSLGILLYTMLAGFTPFANGPDDTPEEILARIGSGKYALSGGNWDSISDAAKDVVSKMLHVDPHQRLTAMQVLKHPWVVNREYLSPNQLSRQDVHLVKGAMAATYFALNRTPQAPRLEPVLSSNLAQRRGMKRLTSTRL
modifications: phosphorylated in vitro with ERK2; sites on this protein not stated here (S360 is named as the ERK site of HA-RSK3 in paragraph 123)
notes: also called Phospho-His-RSK3 (ERK2); not shown: His tag
fold decrease of binding affinity against unphosphorylated RSK3 [2]: 5 fold

B2: His-RSK3 phosphorylated by both ERK and PDK1 (enzyme)
chain: MDLSMKKFAVRRFFSVYLRRKSRSKSSSLSRLEEEGVVKEIDISHHVKEGFEKADPSQFELLKVLGQGSYGKVFLVRKVKGSDAGQLYAMKVLKKATLKVRDRVRSKMERDILAEVNHPFIVKLHYAFQTEGKLYLILDFLRGGDLFTRLSKEVMFTEEDVKFYLAELALALDHLHSLGIIYRDLKPENILLDEEGHIKITDFGLSKEAIDHDKRAYSFCGTIEYMAPEVVNRRGHTQSADWWSFGVLMFEMLTGSLPFQGKDRKETMALILKAKLGMPQFLSGEAQSLLRALFKRNPCNRLGAGIDGVEEIKRHPFFVTIDWNTLYRKEIKPPFKPAVGRPEDTFHFDPEFTARTPTDSPGVPPSANAHHLFRGFSFVASSLIQEPSQQDLHKVPVHPIVQQLHGNNIHFTDGYEIKEDIGVGSYSVCKRCVHKATDTEYAVKIIDKSKRDPSEEIEILLRYGQHPNIITLKDVYDDGKFVYLVMELMRGGELLDRILRQRYFSEREASDVLCTITKTMDYLHSQGVVHRDLKPSNILYRDESGSPESIRVCDFGFAKQLRAGNGLLMTPCYTANFVAPEVLKRQGYDAACDIWSLGILLYTMLAGFTPFANGPDDTPEEILARIGSGKYALSGGNWDSISDAAKDVVSKMLHVDPHQRLTAMQVLKHPWVVNREYLSPNQLSRQDVHLVKGAMAATYFALNRTPQAPRLEPVLSSNLAQRRGMKRLTSTRL
modifications: phosphorylated in vitro with ERK2 and PDK1; sites on this protein not stated here (S360 ERK site and S218 PDK1 site are named for HA-RSK3 in paragraph 123)
notes: also called Phospho-His-RSK3 (ERK2 and PDK1); not shown: His tag
fold decrease of binding affinity against unphosphorylated RSK3 [2]: 8 fold

B3: mAKAP RSK binding domain (RBD), mAKAP residues 1694 to 1833 (other, not shown: small tags and cut ends)
chain: ELSLCSEDIVLHKNKIPESNASFRKRLNRSVADESDVNVSMIVNVSCTSACTDDEDDSDLLSSSTLTLTEEELCLKDEDDDSSIATDDEIYEESNLMSGLDYIKNELQTWIRPKLSLTREKKRSGVTDEIKVNKDGGGNE
notes: also called mAKAP RBD
binding result [3]: no binding
